Measured values from patent publication US20210179728A1.
“And” between values parts separate entries of the source, which are not always exact repeats. Identical values can stand only once. Blank lines part the entries; values can stand above or below the substance they belong to.

What was measured:
[1] = molecular target: recombinant hSIRPa (Sino Biologicals, reference 11612-H08H) (human) (UniProt P78324); experiment: SPR (Biacore); SIRPa-His immobilized on CM5 chip, antibody injected
[2] = molecular target: SIRPg on human CD3+ T cells (human) (UniProt Q9P1W8); experiment: flow cytometry on peripheral human CD3+ T cells; Exp 1 HV1 [B, table B]
[3] = molecular target: SIRPg on human CD3+ T cells (human) (UniProt Q9P1W8); experiment: flow cytometry on peripheral human CD3+ T cells; Exp 1 HV2 [B, table B]
[4] = molecular target: recombinant hSIRPa (Sino Biologicals, reference 10975-H08H) (human) (UniProt P78324); experiment: ELISA on immobilized recombinant hSIRPa, anti-mouse Fc detection; given as ED50
[5] = molecular target: CD47 on human T cells, red blood cells and platelets (human) (UniProt Q08722); experiment: flow cytometry on peripheral human CD3+ T cells; Exp 1 HV1 [B, table B]
[6] = molecular target: CD47 on human T cells, red blood cells and platelets (human) (UniProt Q08722); experiment: flow cytometry on peripheral human CD3+ T cells; Exp 1 HV2 [B, table B]
[7] = molecular target: SIRPa on human monocytes (human) (UniProt P78324); experiment: flow cytometry on human monocytes v1/v1, PE anti-human Fc; MFI [B, panel B table]
[8] = molecular target: SIRPa on human monocytes (human) (UniProt P78324); experiment: flow cytometry on human monocytes v1/v1, PE anti-human Fc; percent of stained monocytes [B, panel A table]

SIRPg on human CD3+ T cells (human), sequence (Q9P1W8 29-387): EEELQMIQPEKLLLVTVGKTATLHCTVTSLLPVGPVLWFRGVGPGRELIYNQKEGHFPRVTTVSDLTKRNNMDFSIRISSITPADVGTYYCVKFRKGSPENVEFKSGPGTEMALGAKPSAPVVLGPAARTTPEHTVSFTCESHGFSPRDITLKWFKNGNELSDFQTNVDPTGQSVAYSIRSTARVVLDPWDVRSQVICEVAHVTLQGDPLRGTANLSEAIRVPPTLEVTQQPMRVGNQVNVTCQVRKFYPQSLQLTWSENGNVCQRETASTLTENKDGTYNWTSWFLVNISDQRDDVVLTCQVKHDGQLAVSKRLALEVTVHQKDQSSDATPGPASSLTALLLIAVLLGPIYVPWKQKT

% of positive T-cells [5]: 72.2% | % of positive T-cells [6]: 80.1%
Substance: SIRPa-fc (Fc fusion)

% of positive T-cells [3]: 0.016%
Substance: Mouse isotype Ctrl (antibody)

Continued, substance first:

Substance: SE5A5 (antibody)
Kd [1]: 38.7 nM | koff [1]: 0.000949 s⁻¹ | kon [1]: 24500 M⁻¹ s⁻¹ | % of positive T-cells [2]: 3.72% | % of positive T-cells [3]: 7.69% | EC50 [4]: 0.16 nM and 0.024 µg/mL

Substance: Ctrl Ab II (antibody)
% of positive T-cells [2]: 0.45% | % of positive T-cells [3]: 1.12%

Substance: SE7C2 (antibody)
Kd [1]: 1670 nM | koff [1]: 0.01 s⁻¹ | kon [1]: 5980 M⁻¹ s⁻¹

Substance: LSB2.20 (antibody)
% of positive T-cells [2]: 91.4% | % of positive T-cells [3]: 98.4%

Substance: Kwar23 (antibody)
EC50 [7]: 0.378 µg/mL | EC50 [8]: 0.26 µg/mL
